According to the RNAGym collection of RNA variant scans (doi:10.1021/acssynbio.7b00057):

B1: Pistol ribozyme (parent)
chain: GGGUCGUUGUUCCAUAAUCGCGUGGAUAUGGCACGCAAGUUUCUACCGGGCACCGUAAAUGUCCGACUGGAGCCGUUCGGGCGGCUAUAAACAGACCUCAGGCCCGAAGCGUGGCGGCACCUGCCGCCGGUGGUAAAAAAGAUCGGAAGAGCACACGUCU

Variants of: B1
Assay: aptazyme ON/OFF ratio, guanine; higher = stronger switching; co-transcriptional cleavage with and without guanine

Row | Variant | aptazyme ON/OFF ratio
1 | U8C G9C C12U C13A | 1.05
2 | U8C G9C C12U C13G | 1.07
3 | U8C G9C C12U C13U | 1.13
4 | U8C G9A U11A C12U C13U | 1.29
5 | U8C G9A U11A C12U C13G | 1.14
6 | U8C G9A U11A C12U C13A | 1.21
7 | U8C G9A U11C C12A C13U | 1.17
8 | U8C G9A U11C C12A C13A | 1.15
9 | U8C G9A U11C C12A C13G | 1.14
10 | U8C G9A U10G U11C C12A C13A | 1.15
11 | U8C G9A U10G U11C C12A C13U | 1.22
12 | U8C G9A U10G U11C C12A C13G | 1.1
13 | U8C G9C U10A U11G C12A C13A | 1.16
14 | U8C G9C U10A U11G C12A C13G | 1.09
15 | U8C G9C U10A U11G C12A C13U | 1.07
16 | U8C G9C U10C C12G C13U | 1.08
17 | U8C G9C U10C C12G C13G | 1.12
18 | U8C G9C U10C C12G C13A | 1.07
19 | U8C G9C U10A U11A C12G C13U | 1.12
20 | U8C G9C U10A U11A C12G C13A | 1.1
21 | U8C G9C U10A U11A C12G C13G | 1.18
22 | U8C G9C U10A C13G | 1.16
23 | U8C G9C U10A C13A | 1.08
24 | U8C G9C U10A C13U | 1.07

Row | Variant | aptazyme ON/OFF ratio
25 | U8C G9A U10G C12A C13G | 1.1
26 | U8C G9A U10G C12A C13U | 1.28
27 | U8C G9A U10G C12A C13A | 1.27
28 | U8C G9C U10G U11G C12A C13A | 1.08
29 | U8C G9C U10G U11G C12A C13G | 1.11
30 | U8C G9C U10G U11G C12A C13U | 1.08
31 | U8C G9A U10G U11G C12U C13A | 1.09
32 | U8C G9A U10G U11G C12U C13G | 1.1
33 | U8C G9A U10G U11G C12U C13U | 1.22
34 | U8C G9C U10A U11G C12U C13A | 1.19
35 | U8C G9C U10A U11G C12U C13U | 1.22
36 | U8C G9C U10A U11G C12U C13G | 1.15
37 | U8C G9C U11A | 1.18
38 | U8C G9A U10G U11C C12U C13A | 1.2
39 | U8C G9A U10G U11C C12U C13U | 1.28
40 | U8C G9A U10G U11C C12U C13G | 1.15
41 | U8C G9C U10A U11C C12A C13U | 1.22
42 | U8C G9C U10A U11C C12A C13G | 1.18
43 | U8C G9C U10A U11C C12A C13A | 1.27
44 | U8C G9A U11A C12A C13G | 1.13
45 | U8C G9A U11A C12A C13A | 1.15
46 | U8C G9A U11A C12A C13U | 1.34
47 | U8C G9C U10C U11G C12G C13A | 1.13
48 | U8C G9C U10C U11G C12G C13G | 1.09

Row | Variant | aptazyme ON/OFF ratio
49 | U8C G9C U10C U11G C12G C13U | 1.08
50 | U8C G9C U10G C12U C13U | 1.28
51 | U8C G9C U10G C12U C13A | 1.12
52 | U8C G9C U10G C12U C13G | 1.06
53 | U8C G9C U10C C13A | 1.01
54 | U8C G9C U10C C13U | 1.12
55 | U8C G9C U10C C13G | 1.05
56 | U8C G9A U11A | 1.25
57 | U8C G9A U11G | 1.45
58 | U8C G9A U11C | 1.09
59 | U8C G9A U11C C13U | 1.04
60 | U8C G9A U11C C13A | 1.06
61 | U8C G9A U11C C13G | 1.04
62 | U8C G9A U10G U11A C12G C13A | 1.19
63 | U8C G9A U10G U11A C12G C13G | 1.35
64 | U8C G9A U10G U11A C12G C13U | 1.22
65 | U8C G9C U10A U11C C12U C13G | 1.17
66 | U8C G9C U10A U11C C12U C13A | 1.19
67 | U8C G9C U10A U11C C12U C13U | 1.19
68 | U8C G9C U10C U11A C12A | 1.04
69 | U8C G9C U10C U11A C12U | 1.02
70 | U8C G9C U10C U11A C12G | 1.01
71 | U8C G9C U10C U11C C13G | 1.04
72 | U8C G9C U10C U11C C13U | 0.96

Row | Variant | aptazyme ON/OFF ratio
73 | U8C G9C U10C U11C C13A | 1.01
74 | U8C G9C U10A C12U | 1.13
75 | U8C G9C U10A C12A | 1.11
76 | U8C G9C U10A C12G | 1.25
77 | U8C G9A U11C C12G | 1.29
78 | U8C G9A U11C C12A | 1.3
79 | U8C G9A U11C C12U | 1.16
80 | U8C G9C U10A U11C C13G | 1.2
81 | U8C G9C U10A U11C C13U | 1.14
82 | U8C G9C U10A U11C C13A | 1.23
83 | U8C G9C U10A U11A C12U C13A | 1.09
84 | U8C G9C U10A U11A C12U C13G | 1.1
85 | U8C G9C U10A U11A C12U C13U | 1.08
86 | U8C G9C U10A U11G | 1.16
87 | U8C G9C U10A U11C | 1.05
88 | U8C G9C U10A U11A | 1.24
89 | U8C G9C U10A U11A C13A | 1.15
90 | U8C G9C U10A U11A C13G | 1.17
91 | U8C G9C U10A U11A C13U | 1.09
92 | U8C G9A U11C C12G C13A | 1.24
93 | U8C G9A U11C C12G C13U | 1.18
94 | U8C G9A U11C C12G C13G | 1.26
95 | U8C G9C U11A C12U | 1.08
96 | U8C G9C U11A C12G | 1.18

Row | Variant | aptazyme ON/OFF ratio
97 | U8C G9C U11A C12A | 1.22
98 | U8C G9C U10G C12A C13G | 1.08
99 | U8C G9C U10G C12A C13A | 1.13
100 | U8C G9C U10G C12A C13U | 1.09
101 | U8C G9A U10G U11G C12G | 1.21
102 | U8C G9A U10G U11G C12U | 1.24
103 | U8C G9A U10G U11G C12A | 1.12
104 | U8C G9C U10C C12A | 1.06
105 | U8C G9C U10C C12G | 1.06
106 | U8C G9C U10C C12U | 1.07
107 | U8C G9A U11A C12U | 1.1
108 | U8C G9A U11A C12G | 1.18
109 | U8C G9A U11A C12A | 1.25
110 | U8C G9C U10G U11C C12U C13A | 1.17
111 | U8C G9C U10G U11C C12U C13U | 1.19
112 | U8C G9C U10G U11C C12U C13G | 1.09
113 | U8C G9C U10C C12U C13A | 1.02
114 | U8C G9C U10C C12U C13U | 1.06
115 | U8C G9C U10C C12U C13G | 1.07
116 | U8C G9A U10G U11A C12U C13A | 1.1
117 | U8C G9A U10G U11A C12U C13G | 1.16
118 | U8C G9A U10G U11A C12U C13U | 1.17
119 | U8C G9C U10G U11G C12G C13A | 1.13
120 | U8C G9C U10G U11G C12G C13G | 1.1

Row | Variant | aptazyme ON/OFF ratio
121 | U8C G9C U10G U11G C12G C13U | 1.11
122 | U8C G9C C12G C13A | 1.14
123 | U8C G9C C12G C13G | 1.14
124 | U8C G9C C12G C13U | 1.13
125 | U8C G9C C13G | 1.06
126 | U8C G9C C13U | 1.08
127 | U8C G9C C13A | 1.05
128 | U8C G9C U11A C13A | 1.04
129 | U8C G9C U11A C13U | 1.07
130 | U8C G9C U11A C13G | 1.12
131 | U8C G9A U11G C12U C13A | 1.34
132 | U8C G9A U11G C12U C13G | 1.29
133 | U8C G9A U11G C12U C13U | 1.22
134 | U8C G9C U10A C12U C13U | 1.14
135 | U8C G9C U10A C12U C13A | 1.08
136 | U8C G9C U10A C12U C13G | 1.12
137 | U8C G9C U10G U11A C12G C13U | 1.11
138 | U8C G9C U10G U11A C12G C13A | 1.08
139 | U8C G9C U10G U11A C12G C13G | 1.13
140 | U8C G9C U11A C12A C13G | 1.12
141 | U8C G9C U11A C12A C13A | 1.09
142 | U8C G9C U11A C12A C13U | 1.05
143 | U8C G9C U10G U11A C12U C13G | 1.08
144 | U8C G9C U10G U11A C12U C13A | 1.06

Row | Variant | aptazyme ON/OFF ratio
145 | U8C G9C U10G U11A C12U C13U | 1.04
146 | U8C G9A U10G U11C C13G | 1.07
147 | U8C G9A U10G U11C C13A | 1.11
148 | U8C G9A U10G U11C C13U | 1.06
149 | U8C G9C U10C U11A C12G C13U | 1.1
150 | U8C G9C U10C U11A C12G C13G | 1.08
151 | U8C G9C U10C U11A C12G C13A | 1.06
152 | U8C G9C U10G U11C C13A | 1.3
153 | U8C G9C U10G U11C C13G | 1.22
154 | U8C G9C U10G U11C C13U | 1.2
155 | U8C G9C U10A U11C C12G C13G | 1.16
156 | U8C G9C U10A U11C C12G C13U | 1.27
157 | U8C G9C U10A U11C C12G C13A | 1.23
158 | U8C G9C C12G | 1.19
159 | U8C G9C C12U | 1.08
160 | U8C G9C C12A | 1.16
161 | U8C G9A U10G C12G | 1.15
162 | U8C G9A U10G C12U | 1.36
163 | U8C G9C U10G U11G C12G | 1.13
164 | U8C G9C U10G U11G C12U | 1.09
165 | U8C G9C U10G U11G C12A | 1.15
166 | U8C G9C U10C U11G | 0.956
167 | U8C G9C U10C U11A | 1.02
